experiment: soluble on expression in E. coli; label from the status in PepcDB or PDB records

| Sequence | soluble on expression in E. coli |
| --- | --- |
| TSKCTIIPGSGFRNDEGKYEIIADKCIEADYPQKDEVAAAAYMNKYVEEVILRAPEQWMWLHKRYKTMQDENEPKGIRYK | not soluble |
| TSNFFCGEPIDYRGITAHRLVGAEPRPPVSGTRYAKVPGVPDEYKTGYRPANLGRSDPDSDKSLMNIAVKNLQVYQQEPKLDKVDEFIERAAADVLGYLRFLTKGERQANLNFKAAFNTLDLSTSCGPFVPGKKIDHVKDGVMDQVLAKHLYKCWSVANSGKALHHIYACGLKDELRPLDKVKEGKKRLLWGCDVGVAVCAAAVFHNICYKLKMVARFGPIAVGVDMTSRDVDVIINNLTSKASDFLCLDYSKWDSTMSPCVVRLAIDILADCCEQTELTKSVVLTLKSHPMTILDAMIVQTKRGLPSGMPFTSVINSICHWLLWSAAVYKSCAEIGLHCSNLYEDAPFYTYGDDGVYAMTPMMVSLLPAIIENLRDYGLSPTAADKTEFIDVCPLNKISFLKRTFELTDIGWVSKLDKSSILRQLEWSKTTSRHMVIEETYDLAKEERGVQLEELQVAAAAHGQEFFNFVCRELERQQAYTQFSVYSYDAARKILADRKRVVSVVPDDEFVNVME | soluble |
| TTGNEPPVTQIVDKHRIALALGGGAARGWAHIGVLRALDEAGVKIGMIAGTSIGALVGGCYLAGKLDELEEFARSLTMRRIAGLLDLTIGGGGLFGGMRLTKRMQEHLEGLRVENLEHPFIAVATELRTGHEVWIHQGDLVTALRSSYALPGIFEPVQCNGRTLIDGALVNPVPVSVCRAYEQALVVAVNLNYDLFGRSA | not soluble |
| TTPAPESNRKYIIAVTACPTGIAHTYMAEDALKKKAKEMGVDIKVETNGSEGIKNRLTAEDIARADGVIVAADKKVEMNRFDGKKLVNRPVSDGIRKTEELINLAISGEAPTFHGSDSAA | not soluble |
| TVLENGSWLIDGDTPVNKLKYVLSVDSFPGEEQGYYLTIAGLIMYILQRIPKTGDHMEFNGLRYEVVDMDGIRIDKVMVTKVPEISKD | not soluble |
| TVSRENRAEDSRVAAKGVAFGGGETVRIAAEPSVWSNADAVFLDPFFTSANLYDTLSADEGRGRCRRLAEQAASAHGAGKPVLVRVRNVRHVEAALNAGADILYLGGGLMSDLAVLNEAGSLNIPLVLCKDKHHSAEDWLNAAEYVVSRGNRHLILGESGVLGHTKGHPYRLDVESIVKVRQISHLPVIANITGLWSRDMPQEILYGLAKAAGACGIV | not soluble |
| VADVVPLDHNNRILVSQGLKRMRSGKMRPGIRALFEVARRDWRKAQPFDMGFALGPRINAAGRLDDMSVGIACLLARDDSEAQELAAQLNNLNIERREIEQSMLQDALNDFPETLPSGQMTLVAYRDDFHQGVVGIV | not soluble |
| VAGPIAVGCYPALGPTILPSMLYAFTAEYPRASVEFREDTQNRLRTQLEGGELDVAIVYDLDLSPEWQTVPLMTREPMVVLGAEHPLAGVDGPVRLADLAEHPMVLLDAPPSTNHAMDVCREAGFAPRVAYRTANFETARAFVGRGLGWTLLLQRPRVDVTYEGLPVVVKPIAEPKPASVAVVVAWHQEATLSRVARAFIRFVTA | soluble |
| VARADESLQQVVMAYFGVQFKSEQKAIALKAMQHIVQSFSLDNGPQNHDITHHTDNQGYENYIVVGYWRDPGAYCRWFRSTEVSHWWDSDERLNDGIGYFREIVIPRADQFETLYAFKEDLPGVGAVMDDISDDIQEHGYWGSARERF | not soluble |
| VDNVLVIIGPTASGKTKLAIEIAKRANGEIISADSMQIYKYMDIGTAKPDEEEKEGIKHYLIDEVTPDEEFSVARFKELALKYIDEILSKGKLPIVAGGTGLYINSLIYNLEFSDTICDWELRKKLEQEAKEKGNEYLHNKLKEIDPKAAEKIHMNNVKRVIRAIEVYTYTKKPISVHQEESRKNPPRHNFILIGITMDREKLYDRINKRVDLMLEKGLVKEVEKLVEMGYDKSTIAMQGLGYKEILSYLRGERSLDEAVEILKRDTRRYAKRQMTWFRKIENVYWINKDEFDSDEKIIKNLKYYLATFGIFL | soluble |
| VEPVPDTHLRGITCLDHENEKVNMYCVSDDQLICALCKLVGRHRDHQVASLNDRFEKLKQTLEMNLTNLVK | soluble |
| VEYSKDRLEMEIVMAAERLDITEECIRFSSHNKFFIEELNNSSSGSGRKLNFLLQEQLREANTIASKSQNADISQKVVHIKEELEKVREQLQNIE | not soluble |
| VGEKITKMKEESHKTKQTKTEDPITKETYQARQRTLLQRDYLLVHIEDLLPKQVFAVSVINDYLVCIQAQGLEPMSDVGLLGKHQFYLRTYHYFV | not soluble |

— the DeepSol protein solubility set
